Source: patent publication EP4813403A1, “USE OF GLP-1R/GIPR DOUBLE-TARGET AGONIST IN PREPARING ANIMAL DRUG” (Hangzhou Zhongmeihuadong Pharmaceutical Co., Ltd., priority 2023, dated 2025)

B1: P007 (peptide)
peptide: YXEGTXTSDYXIXLDKQAQAEFVKWLLKGGPSSGAPPPSK
modifications: Aib at 2; αMePhe at 6; Aib at 11; Aib at 13; K at position 24 ε-amino conjugated with ([2-(2-amino-ethoxy)-ethoxy]-acetyl)2-(γ-Glu)1-CO-(CH2)16-CO2H; C-terminal primary amide

Legend:
[1] = biological target: T1, human GIP receptor (human) (UniProt P48546); test: radioligand competition ([125I]GIP displaced), membranes of cells over-expressing human GIPR; Ki by Cheng-Prusoff
T1 sequence (looked up): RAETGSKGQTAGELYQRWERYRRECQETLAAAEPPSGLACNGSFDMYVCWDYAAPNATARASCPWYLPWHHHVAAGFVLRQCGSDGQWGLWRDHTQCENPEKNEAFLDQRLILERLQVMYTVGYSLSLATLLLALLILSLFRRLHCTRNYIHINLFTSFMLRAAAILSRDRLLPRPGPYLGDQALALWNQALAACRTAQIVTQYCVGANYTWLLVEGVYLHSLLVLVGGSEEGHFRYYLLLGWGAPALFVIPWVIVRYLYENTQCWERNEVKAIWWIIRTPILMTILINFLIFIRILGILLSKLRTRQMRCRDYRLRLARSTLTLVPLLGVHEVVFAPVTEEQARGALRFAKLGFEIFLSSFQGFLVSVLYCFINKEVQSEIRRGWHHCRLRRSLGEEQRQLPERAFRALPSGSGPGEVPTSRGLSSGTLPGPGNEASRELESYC

[2] = biological target: human GLP-1 receptor (human) (UniProt P43220); test: cell-based or functional assay
Sequence of human GLP-1 receptor (human) (P43220 24-463): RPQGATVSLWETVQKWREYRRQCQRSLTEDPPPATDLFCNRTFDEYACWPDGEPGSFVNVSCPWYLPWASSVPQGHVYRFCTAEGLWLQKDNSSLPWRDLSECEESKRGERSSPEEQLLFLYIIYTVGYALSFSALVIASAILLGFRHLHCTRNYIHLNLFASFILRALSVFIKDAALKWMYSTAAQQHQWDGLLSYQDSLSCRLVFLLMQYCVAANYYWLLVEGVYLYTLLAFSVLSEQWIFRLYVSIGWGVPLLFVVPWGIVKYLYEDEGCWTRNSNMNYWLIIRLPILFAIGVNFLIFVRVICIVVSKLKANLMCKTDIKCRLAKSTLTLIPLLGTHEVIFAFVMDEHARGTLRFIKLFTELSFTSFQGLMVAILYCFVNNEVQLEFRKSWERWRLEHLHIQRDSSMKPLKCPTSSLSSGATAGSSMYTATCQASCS

[3] = biological target: T1, human GIP receptor (human); test: cell-based or functional assay
[4] = biological target: human GLP-1 receptor (human) (UniProt P43220); test: radioligand competition ([125I]GLP-1 displaced), membranes of cells over-expressing human GLP-1R; Ki by Cheng-Prusoff

| Binder | Ki ratio (Ki of endogenous ligand / Ki of test compound) [1] | EC50 value (ratio: EC50 of endogenous ligand / EC50 of test compound), cAMP reporter gene (luciferase) assay, HEK293/CRE/GLP-1R cells [2] | EC50 value (ratio: EC50 of endogenous ligand / EC50 of test compound), LANCE Ultra cAMP assay, HEK293/GIPR cells [3] | Ki ratio (Ki of endogenous ligand / Ki of test compound) [4] |
| --- | --- | --- | --- | --- |
| YXEGTXTSDYXIXLDKQAQAEFVKWLLKGGPSSGAPPPSK (X1 is Aib; X2 is αMePhe; X3 is Aib; X4 is Aib; C-terminal primary amide) [P001] | 8.82 | 52.1 | 7.13 | 19.5 |
| B1 | – | 5.84 | – | 0.47 |
